Assay [1] concerns the target Fc region prepared from human monoclonal IgG by papain digestion (human). The assay is described as follows: SPR, Fc immobilized.
Assay [2] has as its target human Fc region manufactured by Jackson ImmunoResearch Laboratories, Inc. (human). The assay is described as follows: SPR, Fc immobilized, 25 C.

B1: variant polypeptide p17_M51A (peptide)
peptide: GPGISAFSPGRGVYDPETGTWYDAAWHLGELVWATYYDPETGTWEPDWQRALGQ
In assay [1], B1 returned a Kd of 0.18 µM and a fold decrease of binding activity against p17 of over 100 times.

Turning to GVVRQWSGGGGSGGGGRSSIAYGGG [polypeptide 2A1Gly], in assay [2], the Kd came to 23 µM.

For RSSIAYGGG [polypeptide RSS], the Kd in assay [2] came to 110 µM.

Source of the values: patent publication US20150353608A1.
